Test results: patent publication US12600782 (BIOTHEUS, dated 2026)
Substitutions are numbered along the chain they refer to.

B1: D-Ye-32 (antibody, V domains shown)
VH: QVQLQESGGGLVQAGGSLRLSCAASGSVGSINAMAWFRQAPGKQRDVVAHMPSGGSTHYADSVKGRFTVSRDNAKNTVYLQMNSLKAEDTAVYYCWAAGLGWGQGTQVTVSS
notes: Anti-PD-L2 heavy chain antibody: VHH linked to human IgG1 (LALA) Fc; the junction is not described
B2: D-Ye-22 (antibody, V domains shown)
VH: QVQLQESGGGLVQAGDSLRLSCIGSRRTFTMAWFRQAPGKEREFVAGIWGPADHTIYANSVKGRFACSRDDSTNTIFLQMNSLELEDTALYLCAAADSSGDDFEYWGQGTQVTVSS
notes: as for B1
B3: D-Na-58 (antibody, V domains shown)
VH: QVQLVESGGGLVQAGGSLTLSCTASGRTFSSYAMAWFRQAPGKERELLVTISRSGSTTYYLDSVKGRFTISRDNAKNTVYLQMNSLKPEDTAVYYCAAKRSLQDEVYYWGQGTQVTVSS
notes: as for B1
B4: D-Na-64 (antibody, V domains shown)
VH: EVQLVESGGGLVQPGGSLRLSCAASGRTFSSMTIGWFRQTPGKEREFVAGIGWSTSKTVYKDSVKGRFTISTDNAKKTVYLQMNNLKPEDTAVYYCAADSMNRGQFDYWGQGTQVTVSS
notes: as for B1
B5: D-Ye-10 (antibody, V domains shown)
VH: B4 VH with E1Q, V5Q, P14A, G16A, A24S, A98E
notes: as for B1
B6: HZ-D-Na-96-3 (antibody, V domains shown)
VH: EVQLVESGGGLVQPGGSLRLSCAASGRTFSSMTIGWFRQAPGKEREFVSGIGWTSGLTVYADSVKGRFTISRDNAKNSMYLQMNSLKPEDTAVYYCAADSMNRGQFDYWGQGTLVTVSS
notes: Humanized anti-PD-L2 heavy chain antibody: VHH linked to human IgG1 (LALA) Fc; the junction is not described
B7: HZ-D-Na-96-2 (antibody, V domains shown)
VH: B6 VH with E44G, R45L, M79L
notes: as for B6
B8: D-Ye-29 (antibody, V domains shown)
VH: QVQLQESGGGLVQPGGSLRLSCAASGSEFSFIPTGWYRQTPGKQRDLVAVFTSGGLTNYADSVKGRFTISRNNTKNIVYLQMNSLKPEDTAVYYCSGVPGPHYNGPTSGINYWGQGTQVTVSS
notes: as for B1
B9: HZ-D-Ye-29-3 (antibody, V domains shown)
VH: B8 VH with Q1E, Q5L, T40A, D46E, N72D, T74S, I77T, K86R, P87A
notes: as for B6
B10: K-Yr-13&14-16 (antibody, V domains shown)
VH: EVQLVESGGGLVQAGGSLRLSCAASTRTFITYAMGWFRQAPGKEREFVASINWSGASTYYADSVKGRFTISRHNAKNTVYLQMNSLKPEDTAVYYCAAALSAVVVTQILDYDYWGQGTLVTVSS
notes: Anti-PD-L1 heavy chain antibody: VHH linked to human IgG1 (LALA) Fc; the junction is not described
B11: K-Yr-13&14-09 (antibody, V domains shown)
VH: QVQLVESGGGLVKAGDSLRLSCAASGRTFTIYAIGWFRQAPGKEREFVATINWSGSMTNYTDSVKGRFTISRDNAKNTVYLQMNSLKPDDTAIYYCAAYVGATISTAHSRYDYWGQGTLVTVSA
notes: as for B10
B12: D-Na-89 (antibody, V domains shown)
VH: QVQLVESGGGLVQAGGSLRLSCAASGLTFINYAMGWFRQAPGKEREFVAAISWAGGTTSYADSVKDRFSITRDSAKDTVYLQTNSLKPEDTAVYYCAANSRILSRTAKDYDYWGQGTEVTVSS
notes: as for B1
B13: D-Na-87 (antibody, V domains shown)
VH: QVQLVESGGGLVQPGGSLRLSCAASGFAFDAYAMTWVRQAPGKGLEFLSRIYSHGSKIIYAGSVKGRFTIFRDNAKNTVYLQMNSLKPEDTAVYYCAAGPDNIPTTGEKYDFWGQGTQVTVSS
notes: as for B1
B14: D-Na-90 (antibody, V domains shown)
VH: B12 VH with E118Q
notes: as for B1
B15: D-Na-78 (antibody, V domains shown)
VH: QVQLVESGGGLVQAGGSLRLSCEASGVISINYAMAWFRQAPGKEREFVAAISRFGVTTSYADSVKDRFSIGITRDNAKDTMYLQTKSLKPEDTAVYYCAANSRILSRTAKDYDYWGQGTQVTVSS
notes: as for B1
B16: D-Na-80 (antibody, V domains shown)
VH: EVQLVESGGGLVQAGGSLRLSCAVSGVSFINYAMGWFRQAPGKEREFVAAISRFGGTTSYADSVKDRFSITTDTKDTVYLQTNSLKPEDTAVYYCAANSRILSRTAKDYDYWGQGTQVTVSS
notes: as for B1
B17: D-Na-67 (antibody, V domains shown)
VH: QVQLVESGGGLVQAGGSLRLSCAASGGLTFINYAMGWFRQAPGKEREFVAAISRFGGTTSYADSVKDRFSITRDVAKDTVYLQTNSLKPEDTAVYYCAANSRILSRTAADYDYWGQGTQVTVSS
notes: as for B1
B18: D-Ye-31 (antibody, V domains shown)
VH: B4 VH with E1Q, V5Q, P14A, R19G
notes: as for B1

Target: T1, human PD-L2 on CHO cells (CHO-hPD-L2 cells) (human, UniProt Q9BQ51 20-273)
T1 construct: whole, on cells; also called CHO-K1-PD-L1/PD-L2
T1 sequence (looked up): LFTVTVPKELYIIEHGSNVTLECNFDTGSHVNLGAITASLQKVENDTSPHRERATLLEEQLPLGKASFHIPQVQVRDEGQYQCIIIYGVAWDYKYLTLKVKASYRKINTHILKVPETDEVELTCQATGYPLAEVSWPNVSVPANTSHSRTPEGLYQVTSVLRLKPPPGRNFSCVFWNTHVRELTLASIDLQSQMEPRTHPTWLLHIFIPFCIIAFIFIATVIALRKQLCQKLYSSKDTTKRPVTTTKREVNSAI
Assay: flow cytometry on CHO-hPD-L2 cells, PE anti-human IgG-Fc, median fluorescence intensity (MFI)
Experimental: (§1) The expanded CHO-hPD-L2 cells were adjusted to a cell density of 2×10⁶ cells/ml, and were added to 96-well flow plate at 100 μl/well, and centrifuged for later use. […] The diluted samples were added to the 96-well flow plate with cells at 100 μl/well, incubated at 4° C. for 30 min, and washed twice with PBS. Goat F(ab')2 anti-human IgG-Fc (PE) (purchased from Abcam) diluted 100 times with PBS was added at 100 μl/well, incubated at 4° C. for 30 min, and washed twice with PBS. PBS was added at 100 μl/well to resuspend cells, and detection was performed on a CytoFlex (Bechman) flow cytometer and the corresponding MFI was calculated.

Row | Binder | EC50 (read off the curve)
1 | B1 | ~70 nM
2 | B2 | ~20 nM
3 | B3 | ~50 nM
4 | B4 | ~60 nM
5 | B5 | ~50 nM

Target: T2, human PD-L2 protein (purchased from AcroBiosystems) (human, UniProt Q9BQ51 20-219, limits assumed, biotinylated in the blocking assays)
T2 construct: Bought soluble protein; also called PD-L2 antigen; biotinylated human PD-L2 protein
T2 sequence (looked up): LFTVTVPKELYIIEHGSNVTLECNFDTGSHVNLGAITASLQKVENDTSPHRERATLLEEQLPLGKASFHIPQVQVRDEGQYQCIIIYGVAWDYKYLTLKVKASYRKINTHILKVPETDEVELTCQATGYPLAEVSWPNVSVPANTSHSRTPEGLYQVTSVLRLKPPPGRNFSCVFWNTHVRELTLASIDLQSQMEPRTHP
Assay: flow cytometry blocking assay: antibody pre-incubated with biotinylated human PD-L2 protein (1 ug/ml), binding of PD-L2 to CHO-hPD-1 cells read as MFI (APC)
Experimental: (§2) CHO cells overexpressing human PD-1 (CHO-hPD-1 cells) were generated by transfection of the pCHO1.0 vector (purchased from Invitrogen™) cloning human PD-1 cDNA (purchased from Sino Biological). The expanded CHO-hPD-1 cells were adjusted to a cell density of 2×10⁶ cells/ml, and were added to 96-well flow plate at 100 μl/well, and centrifuged for later use. The purified mutant sample was diluted with PBS and diluted 3 times from […] for 12 points. […] The co-incubation sample was added to the above-mentioned 96-well flow plate with cells 100 μl/well, incubated at 4° C. for 30 min, and washed twice with PBS. APC goat anti-mouse IgG (minimum×reactive) antibody diluted 100 times with PBS (purchased from Biolegend®) was added at 100 μl/well, incubated at 4° C. for 30 min, and washed twice with PBS. PBS was added at 100 μl/well to resuspend cells, and detection was performed on a CytoFlex (Bechman) flow cytometer and the corresponding MFI was calculated.

Row | Binder | IC50 (read off the curve)
6 | B6 | ~2 nM
7 | B7 | ~2 nM

Target: T2, human PD-L2 protein (purchased from …)
Assay: BLI (ForteBio), antibody on AHQ sensor, 100 nM PD-L2 antigen, 1:1 model
Experimental: (§3) ForteBio affinity determination was carried out according to existing methods (Estep, P et al., High throughput solution-based measurement of antibody-antigen affinity and epitope binning. MAbs, 2013.5(2): p. 270-8). In short, the sensor was equilibrated for 30 min under the line of the analysis buffer, and then the baseline was established after online detection for 60 s. The purified antibody obtained as described above was loaded onto the AhQ sensor online. […] Kinetic analysis was performed using a 1:1 binding model.
The experimental method was the same as that in Example 1.5.

Row | Binder | Kd | koff | kon
8 | B6 | 1.99 nM | 0.00059 s⁻¹ | 297000 M⁻¹ s⁻¹
9 | B7 | 1.58 nM | 0.000512 s⁻¹ | 323000 M⁻¹ s⁻¹
10 | B8 | 1.93 nM | 0.000376 s⁻¹ | 195000 M⁻¹ s⁻¹
11 | B9 | 4.49 nM | 0.00173 s⁻¹ | 386000 M⁻¹ s⁻¹

Target: T3, human PD-L1 protein (purchased from AcroBiosystems) (human, UniProt Q9NZQ7 19-238, biotinylated in the blocking assay)
T3 construct: Bought soluble protein; also called PD-L1 antigen; biotinylated human PD-L1 protein
T3 sequence (Q9NZQ7 19-238 limits assumed): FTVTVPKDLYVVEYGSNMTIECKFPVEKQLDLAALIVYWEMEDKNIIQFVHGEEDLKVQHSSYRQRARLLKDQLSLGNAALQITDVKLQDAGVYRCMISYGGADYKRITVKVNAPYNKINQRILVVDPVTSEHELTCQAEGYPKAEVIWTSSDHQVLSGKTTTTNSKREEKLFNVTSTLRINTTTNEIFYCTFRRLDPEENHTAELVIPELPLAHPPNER
Assay: BLI (ForteBio), antibody on AHQ sensor, 100 nM PD-L1 antigen, 1:1 model
Experimental: as §3

Row | Binder | Kd | koff | kon
12 | B10 | 11 nM | 0.00606 s⁻¹ | 553000 M⁻¹ s⁻¹
13 | B11 | 2.56 nM | 0.00137 s⁻¹ | 535000 M⁻¹ s⁻¹

Target: T1, human PD-L2 on CHO cells (CHO-hPD-L2 …)
Assay: flow cytometry on CHO-hPD-L2 cells, PE anti-human IgG-Fc, median fluorescence intensity (MFI)
Remark: another data set of the same source
Experimental: as §1

Row | Binder | EC50 (read off the curve)
14 | B6 | ~3 nM

Target: T2, human PD-L2 protein (purchased from …)
Assay: flow cytometry blocking assay: antibody pre-incubated with biotinylated human PD-L2 protein (1 ug/ml), binding of PD-L2 to CHO-hPD-1 cells read as MFI
Experimental: as §2

Row | Binder | IC50 (read off the curve)
15 | B12 | ~30 nM
16 | B13 | ~30 nM
17 | B2 | ~2 nM
18 | B3 | ~9 nM
19 | B4 | ~10 nM
20 | B5 | ~4 nM

Target: T2, human PD-L2 protein (purchased from …)
Assay: BLI (ForteBio), antibody on AHQ sensor, 100 nM PD-L2 antigen, 1:1 model
Remark: another data set of the same source
Experimental: as §3

Row | Binder | Kd | koff | kon
21 | B12 | 3.31 nM | 0.00112 s⁻¹ | 339000 M⁻¹ s⁻¹
22 | B14 | 3.79 nM | 0.00176 s⁻¹ | 463000 M⁻¹ s⁻¹
23 | B1 | 5.69 nM | 0.00146 s⁻¹ | 256000 M⁻¹ s⁻¹
24 | B15 | 5.95 nM | 0.000345 s⁻¹ | 58100 M⁻¹ s⁻¹
25 | B13 | 0.655 nM | 0.000288 s⁻¹ | 440000 M⁻¹ s⁻¹
26 | B8 | 1.93 nM | 0.000376 s⁻¹ | 195000 M⁻¹ s⁻¹
27 | B2 | 4.51 nM | 0.000825 s⁻¹ | 183000 M⁻¹ s⁻¹
28 | B16 | 3.4 nM | 0.000433 s⁻¹ | 127000 M⁻¹ s⁻¹
29 | B17 | 3.58 nM | 0.000334 s⁻¹ | 93300 M⁻¹ s⁻¹
30 | B3 | 0.486 nM | 0.000325 s⁻¹ | 668000 M⁻¹ s⁻¹
31 | B18 | 5.04 nM | 0.000644 s⁻¹ | 128000 M⁻¹ s⁻¹
32 | B4 | 0.566 nM | 0.000369 s⁻¹ | 652000 M⁻¹ s⁻¹
33 | B5 | 5.22 nM | 0.00106 s⁻¹ | 203000 M⁻¹ s⁻¹
